A word on the Kd: it is the constant that tells how readily two partners part at equilibrium. One may read the koff as a measure of how fast the partners let go of each other. As a reminder, the kon is the second-order rate constant of association.

For test [1], the target named is T1, 6×His-tagged recombinant human C35 (human).
T1 construct: Made in E. coli; also called rhC35; rC35
In words: SPR (Biacore), MAb 163 captured on goat anti-human IgG Fc on a CM5 chip, rC35 in solution, 1:1 kinetic model.

The next test addresses T2, #5 (8454).
T2 construct: One member of the group m17; also called predicted partial Lys-C digest fragment #5 of rhC35; 8kDa N-terminal fragment
T2 N-terminal fragment of 6-His-tagged rhC35, from the N-terminus to the first Lys-C tick: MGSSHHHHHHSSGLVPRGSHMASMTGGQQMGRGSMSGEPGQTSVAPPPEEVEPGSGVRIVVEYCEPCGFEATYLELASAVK
The test can be described thus: Western blot of partially Lys-C digested rhC35, MAb 163, goat anti-human-HRP, TMB. In general terms: Immunoblotting shows a protein as a band on a membrane.

Test [2] has as its target T3, C35 protein (recombinant, construct not stated) (human, UniProt Q9BRT3 1-115, limits assumed).
T3 construct: also called recombinant C35 protein; control C35 protein
T3 sequence: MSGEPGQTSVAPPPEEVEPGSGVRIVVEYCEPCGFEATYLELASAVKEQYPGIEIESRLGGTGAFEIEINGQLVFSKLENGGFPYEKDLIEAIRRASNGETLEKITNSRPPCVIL
The test can be described thus: ELISA on C35 or control protein A27L, secreted antibody from HeLa cells.

The target of test [3] is T3, C35 protein (recombinant, construct not …). The test can be described thus: ELISA and Western blot. For orientation: An ELISA detects its analyte on a solid surface through an enzyme-linked reagent.

B1: MAb 163 human anti-C35 monoclonal antibody (antibody, V domains shown)
VH: EVQLVESGGGLVKPGGSLRLSCEVSGITFSNAWMSWVRQAPGKGLEWVGRIKSKTDGGTTDYAAPVKGRFTISRDDSKNTLYLQMNSLKTEDTAVYYCSIGYYYDSSFKYGMDVWGQGTTVTVSS
VL: DIQMTQSPATLSASVGDRVTITCRASQSISRWLAWYQQKPGQAPKVLIYKASTLQSGVPSRFSGSGSGTEFSLTINSLQPDDFATYYCQQYYSYLRTFGQGTKLEIK
notes: Fully human antibody (clones H730 and L74), detected or captured with anti-human IgG reagents
Turning to B1, in test [1], the Ka turned out to be 2.96e+08 M⁻¹, the Kd was determined as 3.38 nM, the koff was 0.000959 s⁻¹ and the kon stood at 284000 M⁻¹ s⁻¹. Also, in the test with #5 (8454), the binding result was “no binding”.

B2: MAb 165 (antibody, V domains shown)
VH: QVQLQESGPGLVKPPETLSLTCNVSGGSIGRYYWNWIRQSPGKGLEWIGHIHYSGSTIYHPSLKSRVSISLDTSKNQVSLKLSSVTAADTAVYYCARGAYYGGAFFPYFDVWGQGTTVTVSS
VL: DIQMTQSPSSLSASMGDRVTITCRASQGIRNHLAWYQQKPGKAPNLLISAASTLQSGVPTRFSGSGSGTDFTLTISSLQPEDSATYYCQQYNRYPLTFGQGTKLEIK
notes: also called 141D10 VH H732 with UH8 VK L120
Take B2: the binding result in test [2] is listed as “binds”.

B3: 1B3 murine anti-C35 monoclonal antibody (antibody, V domains shown)
VH: EVQLQESGPSLVKPSQTLSLTCSVTGDSITSGYWNWIRKFPGNKLEYVGYISYSGGTYYNPSLKSRISITRDTSKNHYYLQLNSVTTEDTATYYCARGAYYGGAFFPYFDVWGAGTTVTVSS
VL: DVQITQSPSFLAASPGETITINCRASKYISKHLVWYQEKPGETKKLLIYSGSTLQSGLPSRFSGSGSGTDFTLTISSLEPEDFAMYYCQQHNEYPLTFGAGTKLELK
notes: also called hybridoma 1B3.6.1
Take B3: the binding result in test [3] is listed as “binds”.

These data come from patent US20080305111A1 (VACCINEX, published 2008).
